Measurements published in patent US20060150268A1, “Plant-derived transferase genes” (priority 2002, published 2006).

What was measured:
[1] = test system: leaves of Nicotiana benthamiana; assay: Transient expression of HQT in leaves of Nicotiana benthamiana; format: in vivo; details: for HQT enzyme activity in leaves: plants expressing HQT under the control of the 35S promoter (FIG. 6); for amount of chlorogenic acid in vivo in plants: plants expressing HQT under the control of the 35S promoter, HPLC after 4 days (FIG. 6)
Protocol: Leaves were infiltrated with Agrobacterium tumefaciens C58C1 transformed with the plasmid pGFP, which contains the cDNA encoding GFP under control of the 35S promoter, along with bacteria transformed with either the plasmid p19 which carries a cDNA encoding a gene-silencing protein or the control plasmid pBIN19.
Soluble phenolics were extracted by vortexing 30 mg of frozen, powdered leaf material in 300 μl of 70% methanol. After addition of 100 μl distilled water, the extract was vortexed again and then spun for 10 sec at 13,000 g to pellet the debris. The supernatant was analysed by gradient HPLC (apparatus from Spectra Physics, San Jose, Calif.) using a Columbus 5-μm C18 column (25 cm×4.6 mm; Phenomenex, Macclesfiled, Cheshire, UK). Solvent A was 1 mM trifluoroacetic acid, solvent B was acetonitrile, and the gradient was run for 65 min at flow rate of 1 ml min^−1 with the following concentrations: 0 min :100% A, 0% B; 50 min: 60% A, 40% B; 60 min: 30% A, 70% B; 65 min: 100% A, 0% B. The column eluant was monitored using a Spctra Fous scanning detector (Spectra Physics). A chlorogenic acid standard (Sigma) was used to quantify the amount of chlorogenic acid in the leaf extracts.
After the transfer of the overexpression constructs pTom and pTob, and the iRNA constructs pFRNtom and pFRN-tob to Agrobacterium tumefaciens C58C1 (DEBLAERE et al., 1985) single colonies were used for growing 50 mL overnight cultures. Additional 50 ml overnight cultures of Agrobacterium tumefaciens C58C1 containing expression constructs of the green fluorescent protein (PGFP) or the gene silencing inhibitor protein 19 (p19; kindly provided by O. Vionnet) or the empty binary vectors pBIN19 and pFRN were also grown. The cells were precipitated by centrifugation at 4000 g for 20 min and resuspended in 50 ml 10 mM MgCl2. After addition of 50 μl 100 mM acetosyringene the cells were incubated at room temperature overnight. To overexpress HQT similar amounts of the cultures containing pGFP, pTom, pTob were mixed with the same volume of cultures containing either pBIN19 or p19 and each mixture was used to infiltrate three leaves of a Nicotiana benthamiana plant. […] For gene silencing the cultures containing pFRN-tom, pFRN-tob and pFRN were used to infiltrate three leaves of Nicotiana benthamiana.

[2] = test system: HQT enzyme activity (caffeoyl CoA and quinic acid as substrates); assay: HQT enzyme assay with crude extracts from E. coli expressing the recombinant protein; format: biochemical, Escherichia coli; details: recombinant protein expressed in E. coli, decrease of caffeoyl-CoA measured spectrophotometrically (FIG. 5)
Protocol: As described above, HQT catalyses the production of chlorogenic acid via transfer of the caffeoyl moiety of caffeoyl-CoA to quinic acid. Such activity can be assessed, for example, using the assay described in Example 2. Briefly, the assay uses caffeoyl CoA and quinic acid as substrates, and the rate of conversion of caffeoyl CoA to chlorogenic acid is determined by spectrophotometry.
The reaction was initiated by adding the substrate quinic acid and the enzyme activity was measured spectrophotometrically as decrease of the amount of caffeoyl-CoA.
The enzyme activity was determined by spectrophotometry at 30° C. The reaction mixture contained in a total volume of 1 ml: 100 mM Na-Pi buffer pH 7.0, 1 mM EDTA, 16.8 μM caffeoyl CoA and 10-50 μl protein extract. […] The extinction coefficient for caffeoyl CoA is 1.8×10^4 M^−1 cm^−1 (ZENK et al., 1980). The synthesis of caffeoyl CoA was carried out as described previously (SEMLER et al., 1987).
The full-length cDNA of HQT from tomato was subcloned in frame into the NcoI and BamHI-sites of the expression vector pSTAG under the control of the T7 RNA-Polymerase promoter. This strategy led to the introduction of a sequence encoding an S-TAG at the 5′-end of the cDNA. According to procedures provided by the manufacturer (Novagen), the expression and purification of the fusion protein was carried out using the S-TAG™ Thrombin Purification Kit. The enzyme activity of the purified protein was then analysed in HQT enzyme assays.

Molecule	HQT enzyme activity in leaves [1]	amount of chlorogenic acid in vivo in plants [1] [fold]	HQT enzyme activity [2]	HQT enzyme activity ([2]; listed as Hsr201)
tomHQT: hydroxycinnamoyl-CoA quinate hydroxycinnamoyl transferase from tomato, 430 amino acids, SEQ ID NO 1 (protein, listed as Lycopersicon esculentum) MGSEKMMKINIKESTLVKPSKPTPTKRIWSSNLDLIVGRIHLLTVYFYKPNGSSNFFDNKVIKEALSNVLVSFYPMAGRLGRDEQGRIEVNCNGEGVLFVEAESDSCVDDFGDFTPSLELRKLIPSVETSGDISTFPLVIFQITRFKCGGVALGGGVFHTLSDGLSSIHFINTWSDIARGLSVAVPPFIDRTLLRARDPPTYSFEHVEYHPPPTLNSSKNRESSTTTMLKFSSEQLGLLKSKSKNEGSTYEILAAHIWRCTCKARGLPEDQLTKLHVATDGRSRLCPPLPPGYLGNVVFTATPIAKSCELQSEPLTNSVKRIHNELIKMDDNYLRSALDYLELQPDLSTLIRGPAYFASPNLNINSWTRLPVHECDFGWGRPIHMGPACILYEGTIYIIPSPNSKDRNLRLAVCLDAGHMSLFEKYLYEL	Increased HQT enzyme activity	2	showed HQT enzyme activity	
hsr201: tobacco hypersensitive response protein 201, a member of the transferase family (protein, UniProt Q8GT20 1-460, looked up) Benzyl alcohol …: MDSKQSSELVFTVRRQKPELIAPAKPTPREIKFLSDIDDQEGLRFQIPVIQFYHKDSSMGRKDPVKVIKKAIAETLVFYYPFAGRLREGNGRKLMVDCTGEGIMFVEADADVTLEQFGDELQPPFPCLEELLYDVPDSAGVLNCPLLLIQVTRLRCGGFIFALRLNHTMSDAPGLVQFMTAVGEMARGASAPSILPVWCRELLNARNPPQVTCTHHEYDEVRDTKGTIIPLDDMVHKSFFFGPSEVSALRRFVPHHLRKCSTFELLTAVLWRCRTMSLKPDPEEEVRALCIVNARSRFNPPLPTGYYGNAFAFPVAVTTAAKLSKNPLGYALELVKKTKSDVTEEYMKSVADLMVLKGRPHFTVVRTFLVSDVTRGGFGEVDFGWGKAVYGGPAKGGVGAIPGVASFYIPFKNKKGENGIVVPICLPGFAMETFVKELDGMLKVDAPLDNSNYAIIRPAL			no enzyme activity was detected	no HQT enzyme activity
tobHQT: hydroxycinnamoyl-CoA quinate hydroxycinnamoyl transferase from tobacco, 436 amino acids, SEQ ID NO 2 (protein, listed as Nicotiana tabacum) MGSEKMMKINIKESTLVKPSKPTPTKRLWSSNLDLIVGRIHLLTVYFYKPNGSSNFFDSKIMKEALSNVLVSFYPMAGRLARDEQGRIEINCNGEGVLFVEAESDAFVDDFGDFTPSLELRKLIPTVDTSGDISTFPLIIFQVTRFKCGGVSLGGGVFHTLSDGLSSIHFINTWSDIARGLSVAIPPFIDRTLLRARDPPTSSFEHVEYHPPPSLISSSKSLESTSPKPSTTTMLKFSSDQLGLLKSKSKHDGSTYEILAAHIWRCTCKARALSDDQLTKLHVATDGRSRLCPPLPPGYLGNVVFTGTPMAKSSELLQEPLTNSAKRIHSALSKMDDNYLRSALDYLELLPDLSALIRGPTYFASPNLNINSWTRLPVHDSDFGWGRPIHMGPACILYEGTVYILPSPNSKDRNLRLAVCLDADHMPLFEKYLYEF	Increased HQT enzyme activity	2		
